Test results: patent US20240299561A1, “HISTIDINE-SELECTIVE POLYMER REAGENTS” (Nektar Therapeutics, priority 2021, published 2024)
Values joined by “and” are separate entries in the source; they are usually repeats but may differ in a detail not shown here. Equal entries are not always repeated.

Assays:
[1] = Hydrolytic stability of PEG conjugates with α-CBZ-histidine in PBS buffer, pH 7.4, 37° C. (HPLC)
Description: The reaction mixture was incubated at 37° C. and periodically analyzed by HPLC.

[2] = Reaction of histidine-linked conjugates with hydroxylamine (release of α-CBZ-His); conditions: pH 7.3, 25° C., at approximately 42 hours
Source text: FIGS. 14A and 14B provide further evidence of the histidine-selectivity of exemplary polymer reagents provided herein, as illustrated by reaction of their corresponding histidine-linked conjugates with hydroxylamine. The data described below is representative of an indirect method for evaluating covalent attachment of a polymer reagent as provided herein with a histidine residue of an amino acid, peptide, polypeptide or other active histidine containing molecule, by displacement of the histidine-attached molecule resulting from reaction of the histidine-linked polymer conjugate with hydroxylamine.
More particularly, FIG. 14A is a plot illustrating reaction of a histidine conjugate prepared by reaction of Reagent 1 with model compound, α-CBZ-His, with hydroxylamine at pH 7.4, 25° C. […] Histidine conjugates such as the illustrative conjugates tested, when treated with hydroxylamine, undergo a reverse reaction such that the unconjugated histidine compound is released. […] By approximately 22 hours, 100% of the conjugate has disappeared with release of α-CBZ-His.

Row | Molecule | degree of hydrolytic stability relative to the other conjugates tested [1] | % Hydrolysis at day 10 [1] | percent of intact conjugate remaining [2] [%]
1 | COCCOCCOCCOCCOCCOCCOCCOCCOCCOCCOCCOCCOCCOCCOCCOCCOCCOCCOCCOCCOCCOCCOCCOCCOCCOCCOCCOCCOCCOCCOCCOCCOCCOCCOCCOCCOCCOCCOCCOCCOCCOCCOCCOCCOCCOCCOCCOCCOCCOCCOCCOCCOCCOCCOCCOCCOCCOCCOCCOCCOCCOCCOCCOCCOCCOCCOCCOCCOCCOCCOCCOCCOCCOCCOCCOCCOCCOCCOCCOCCOCCOCCOCCOCCOCCOCCOCCOCCOCCOCCOCCOCCOCCOCCOCCOCCOCCOCCOCCOCCOCCOCCOCCOCCOCCOCCOCCOCCOCCOCCOCCOCCOCCOCCN(C)C(=O)n1cnc(C[C@@H](NC(=O)OCc2ccccc2)C(=O)O)c1 [Conjugate 10, mPEG-N(CH3)—CO-α-CBZ-Histidine, 5 kDa] | highest degree of hydrolytic stability | 1.8% and 1.9% | 
2 | mPEG-N(CH2CF3)—CO-α-CBZ-Histidine, 5 kDa [Conjugate 14] | moderate degree of hydrolytic stability |  | 
3 | mPEG-Piperazine-CO— α-CBZ-Histidine, 5 kDa [Conjugate 11] | moderate degree of hydrolytic stability | 15.6% | 4
